Data as given in PMC12369479, “A monomer–dimer switch modulates the activity of plant adenosine kinase” (Journal of Experimental Botany, 2025).

Assays:
[1] = biological target: Arabidopsis thaliana adenosine kinase 2 (6×His-AtADK2) (Arabidopsis thaliana) (UniProt Q9LZG0); assay: SEC; gel permeation chromatography of 6×His-AtADK2 at 1.2 mg/ml (preliminary results, Supplementary Fig. S10)
[2] = biological target: Arabidopsis thaliana adenosine kinase 2 (6×His-AtADK2) (Arabidopsis thaliana) (UniProt Q9LZG0); assay: dynamic light scattering; AtADK2 at higher concentrations (5 mg/ml) (preliminary results)
[3] = biological target: Physcomitrella patens adenosine kinase 1 (PpADK1) (Physcomitrella patens) (UniProt O49923); assay: SAXS; small-angle X-ray scattering, 50 mM Tris-HCl pH 7.5, three concentrations up to 5 mg/ml; Guinier analysis and Bayesian molecular weight estimate
[4] = biological target: Physcomitrella patens adenosine kinase 1 (PpADK1) (Physcomitrella patens) (UniProt O49923)
[5] = biological target: Physcomitrella patens adenosine kinase 1 (PpADK1) (Physcomitrella patens) (UniProt O49923); assay: AUC; sedimentation velocity of PpADK1 at a higher concentration (>0.3 mg/ml), 20 mM Tris-HCl pH 7.5, 150 mM NaCl, 10 mM MgCl2, 10 µM DTT, 1% glycerol, 25 °C, c(s) analysis; monomer to dimer
[6] = biological target: Physcomitrella patens adenosine kinase 1 (PpADK1) (Physcomitrella patens) (UniProt O49923); assay: dynamic light scattering; hydrodynamic diameter, 20 mM Tris-HCl pH 7.5, 1 mM MgCl2, apoform or with 2 mM ATP, 22 °C
[7] = biological target: Physcomitrella patens adenosine kinase 1 (PpADK1) (Physcomitrella patens) (UniProt O49923); assay: SEC; gel permeation chromatography of moss ADKs on Superdex 200 10/30 HR, 20 mM Tris-HCl pH 7.5, 100 mM NaCl; dimers from 0.01 mg/ml (0.25 µM), mainly dimeric above 0.3 mg/ml (7.7 µM); monomer to dimer
[8] = biological target: Physcomitrella patens adenosine kinase 2 (PpADK2) (Physcomitrella patens)
[9] = biological target: Physcomitrella patens adenosine kinase 2 (PpADK2) (Physcomitrella patens); assay: SEC; gel permeation chromatography of moss ADKs on Superdex 200 10/30 HR, 20 mM Tris-HCl pH 7.5, 100 mM NaCl; dimers from 0.01 mg/ml (0.25 µM), mainly dimeric above 0.3 mg/ml (7.7 µM); monomer to dimer
[10] = biological target: Zea mays adenosine kinase 1 (ZmADK1) (Zea mays); assay: SEC; gel permeation chromatography of maize ADKs at higher concentrations (30 mg/ml), Supplementary Fig. S1
[11] = biological target: Zea mays adenosine kinase 2 (ZmADK2) (Zea mays); assay: as above
[12] = biological target: Zea mays adenosine kinase 3 (ZmADK3) (Zea mays); assay: as above

Substance: Arabidopsis thaliana adenosine kinase 2 (6×His-AtADK2) (from UniProt Q9LZG0 1-345) (enzyme)
- stoichiometry N [1]: 2
- stoichiometry N [2]: 2

Substance: Physcomitrella patens adenosine kinase 1 (PpADK1) (from UniProt O49923 1-343) (enzyme)
- stoichiometry N [3]: 2
- specific activity with 100 µM Ado (coupled reaction with PK and LDH, 30 °C) (nmol s^–1 mg^–1) [4]: 5.09
- stoichiometry N [5]: 2
- stoichiometry N [6]: 2
- stoichiometry N [7]: 2

Substance: Physcomitrella patens adenosine kinase 2 (PpADK2) (enzyme)
- specific activity with 100 µM Ado (coupled reaction with PK and LDH, 30 °C) (nmol s^–1 mg^–1) [8]: 4.7
- stoichiometry N [9]: 2

Substance: Zea mays adenosine kinase 1 (ZmADK1) (enzyme)
- stoichiometry N [10]: 2

Substance: Zea mays adenosine kinase 2 (ZmADK2) (enzyme)
- stoichiometry N [11]: 2

Substance: Zea mays adenosine kinase 3 (ZmADK3) (enzyme)
- stoichiometry N [12]: 2
